Target: the molecule itself
Test: native gel or EMSA

B1: FLAG-Pex14p(156–376)SD (domain or fragment, rat, UniProt Q642G4 156-376, looked up)
chain: SGSVAQTVTQVQTTLASVQELLRQQQQKVQELAHELAAAKATTSTNWILESQNINELKSEINSLKGLLLNRRQFPPDPSAPKIPSWQIPVKSPSPSSPAAVNHHSSSDISPVSNESPSSSPGKDGHSPEGSTATYRLLGPQEEGEGVVDVKGQVRMEVQGEEEKREDEEGEEDEDDDVSHVDEEDVLGVQREDRRGGDGQINEQVEKLRRPEGASNESERD
B1 was tested. Which “fold formation of homo-oligomer against WT or SA mutant” value did it give?
Its value is ~1.5 fold.
